Kd data for one molecule are collected here from paper PMC6549151 (2019).

The target of the assay is GPIIb/IIIa (Homo sapiens, UniProt P08514). Briefly: spectrofluorometry titration.

The Kd is the free concentration of one partner at which half of the binding sites on the other are occupied at equilibrium, for simple one-to-one binding. Low readings indicate higher affinity, high ones lower affinity. Molecule PESGRCRGHLRRIYYNLES [RusPep (Rusvikunin-II peptide)] gave a Kd of 1600 nM.
